According to patent US20180128830A1, “DETECTION OF HUMAN CYTOMEGALOVIRUS IN BREAST CANCER” (priority 2015, published 2018):

Tests used:
[1] = target: T1, CXCR4 (Homo sapiens, UniProt P61073); experiment: Calcium flux assay in HEK293 cells; assay type: cell-based
T1 construct: HEK293 cells, which endogenously express both CXCR4 and IL-10R; endogenous in cells; host or cells: HEK293
Method: Calcium flux assays were performed as described (Arnolds K L, et al. Virology 439:122-131.). Briefly, cells were resuspended in 2 mls calcium assay buffer (RPMI with 25 mM of HEPES) at a density of 5×10^5 cells/ml per sample. Each sample was labeled with 2 μl of Fluo-4AM (Invitrogen, Grand Island, N.Y.), wrapped in foil, at 37° C. for 30 minutes with agitation at 10-minute intervals. Following incubation, each sample was pelleted, resuspended in calcium assay buffer, and transferred into an eppendorf tube for flow cytometry using the BD C6 Accuri. Fluorescence intensity of each sample was measured for 20 seconds to establish baseline, then stimulus (CXCL12, in the presence or absence of cmvIL-10, as indicated) was added via micropipetting directly into the sample while fluorescence intensity was measured. Kinetic fluorescence intensity analysis was performed with FlowJo software v9.4.9 (FlowJo, Ashland, Oreg.). Purified recombinant cmvIL-10 was purchased from R&D Systems (Minneapolis, Minn.) and purified recombinant CXCL12 was purchased from Peprotech (Rocky Hill, N.J.). For each calcium flux assay, ionomycin (Sigma) was a positive control for Fluo-4AM loading and PBS served as a negative control for the addition of stimulus.

[2] = tested on: MMP-3; experiment: MMP-3 western blotting and zymography; assay type: cell-based, human; details: over time
Method: Confluent T-75 flasks of MDA-MB-231 cells were treated with 10 ng/mL cmvIL-10 (R&D systems) for the indicated times, then scraped and harvested into cell lysis buffer (150 mM NaCl, 20 mM HEPES, 0.5% Triton-X-100, 1.0 mM NaOV4, 1.0 mM EDTA, 0.1% NaN3) containing 1× protease inhibitors (Calbiochem). Cell lysates were clarified via centrifugation, heated at 70° C. for 10 min in reducing buffer, and the proteins separated on a 4-12% Tris-Base SDS-PAGE gel (Life Technologies, Grand Island, N.Y.). After transfer to nitrocellulose, the membrane was incubated in blocking solution (5% milk+TBS) for 1 hr at room and then probed with primary antibody: 1:1000 dilution for MMP-3 or MTSS-1 antibodies (Santa Cruz), or MAPK antiserum (Cell Signaling Tech, Danvers, Mass.), in blocking solution overnight, oscillating on a platform rocker at 4.0° C. After three washes, the membranes were incubated with a 1:2000 dilution of appropriate AP-conjugated secondary antibody on a platform rocker at room temperature for 1 hr. Protein bands were detected using western blue stabilized AP substrate (Promega, Madison, Wis.). For zymography, cell lysates were denatured in SDS buffer under non-reducing conditions without heat, and run on a 4-16% Zymogram gel using Tris-Glycine SDS running buffer according to manufacturer's instructions. […]

[3] = tested on: HEK293 cells; experiment: Transwell migration toward CXCL12; assay type: cell-based, human; details: 0.1 μg/ml cmvIL-10 in lower chamber, 4 hours
Method: Transwell migration assays were performed by suspending cells at a density of 5×10^4 cells/ml in migration media (MEM or RPMI […] media plus 0.5% FBS). A total of 75 μl of cells was placed onto the upper chamber of a 96-well transwell system with 5.0 μm pores (Corning-Costar, Corning, N.Y.). The lower chamber contained 235 μl of migration media with CXCL12 plus or minus cmvIL-10 as indicated. Plates were incubated for four hours at 37° C., and then cells that traversed through the filter into the lower chamber were quantified via the addition of CellTitre-Glo reagent (Promega, Madison, Wis.) according to manufacturer's instructions.

[4] = tested on: Stat1; experiment: Western blot for Stat1 phosphorylation in MDA-MB-231 cells; assay type: cell-based, human; details: 100 ng/ml, 15 min
Method: For western blotting, cells were treated with 100 ng/ml cmvIL-10, hIL-10, IFNγ or PBS for 15 min, then harvested into cell lysis buffer (150 mM NaCl, 20 mM HEPES, 0.5% Triton-X-100, 1 mM NaOV4, 1 mM EDTA, 0.1% NaN3). Lysates were clarified, proteins were separated via SDS-PAGE, and then transferred to a nitrocellulose membrane. Then membrane was incubated in blocking solution (5% milk+1×TBS-T) for 1 hr, then probed with primary antibody at a 1:1000 dilution (total Stat3 or pStat3, total Stat1 or pStat1) in blocking solution overnight at 4° C. After washing, the membranes were incubated with a 1:2000 dilution of appropriate AP-conjugated secondary antibody and bands were detected using Western Blue stabilized AP substrate (Promega, Madison, Wis.). For analysis of secreted proteins, supernatants were collected at various time points, analyzed by SDS-PAGE and then immunoblotted as above for cmvIL-10, hIL-10, or serpin E1/PAI.

[5] = tested on: MDA-MB-231 cells; experiment: Apoptosis, Annexin V-FITC flow cytometry; assay type: cell-based, human; details: 100 ng/ml cmvIL-10 plus 100 μM etoposide, 48 hrs
Method: Cells were seeded into 96-well dishes at a density of 1×10^4 cell per well in complete medium with varying doses of cmvIL-10, and then cell viability measured at the indicated time points using the Cell Titer Glo Assay kit according to manufacturer's instructions (Promega). DNA synthesis was measured in cells prepared in the same way using the BrdU Cell Proliferation ELISA Kit (Roche, Basel, Switzerland). For experiments using inhibitors, cells were cultivated in 96-well dishes as above with a final concentration of 10 μM inhibitor and BrdU incorporation evaluated after 72 hrs. For cell counts, cells were seeded into 6-well plates at a density of 2×10^5 cells per well, harvested via trypsinization, and counted using a hemacytometer at the indicated time points. The TACS Annexin V-FITC Detection Kit (Trevigen, Gaithersburg, Md.) was used to stain cells harvested from 70% confluent T75 flasks that had been treated with 100 μM etoposide for 48 hrs in the presence or absence of 100 ng/ml cmvIL-10. Cells were then analyzed via flow cytometry to detect fluorescence. For viability assays, Cell Titer Glo reagent was utilized to quantify cells that had been seeded into 96-well dishes at a density of 1×10^4 cell per well in complete medium with varying doses of etoposide in the presence or absence of 100 ng/ml cmvIL-10 as indicated

T1 sequence (P61073 whole entry): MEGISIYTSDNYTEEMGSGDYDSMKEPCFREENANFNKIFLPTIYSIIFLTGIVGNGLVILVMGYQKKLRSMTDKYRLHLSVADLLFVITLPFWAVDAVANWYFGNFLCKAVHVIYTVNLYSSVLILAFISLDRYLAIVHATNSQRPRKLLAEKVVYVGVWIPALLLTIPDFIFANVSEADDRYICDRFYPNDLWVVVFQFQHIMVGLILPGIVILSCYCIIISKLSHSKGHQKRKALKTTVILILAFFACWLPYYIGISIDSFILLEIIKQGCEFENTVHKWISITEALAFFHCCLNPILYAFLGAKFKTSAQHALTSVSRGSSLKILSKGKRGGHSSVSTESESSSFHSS

B1: cmvIL-10 (protein)
chain: ATTTTIKNTKPQCRPEDYATRLQDLRVTFHRVKPTLQREDDYSVWLDGTVVKGCWGCSVMDWLLRRYLEIVFPAGDHVYPGLKTELHSMRSTLESIYKDMRQCPLLGCGDKSVISRLSQEAERKSDNGTRKGLSELDTLFSRLEEYLHSRK
- peak fluorescence intensity of calcium mobilization ([1]; CXCL12 0.1 μg/ml plus cmvIL-10 0.1 μg/ml): significantly higher
- calcium mobilization ([1]; cmvIL-10 alone): did not induce calcium mobilization
- amount of active MMP-3 enzyme (zymography, casein digestion) [2]: also increased
- total MMP-3 protein (western blot) [2]: increase in total MMP-3 protein
- migration toward CXCL12 [3]: significantly increased
- Stat1 phosphorylation [4]: did not globally activate other cellular effectors, such as Stat1
- cells stained positive for Annexin V [5]: 14.8%
